Publication PMC5623066

Molecular target: TDP2 used in vitro (construct not stated) (UniProt O95551)

Kd: 880 nM
Substance: SUMO2 used in vitro (from UniProt P61956 10-93) (natural protein)
